Experiments:
Test in all cases: ITC; 308 K; dockerin in the cell (stirred at 307 revolutions/min) titrated with 28 injections of 10 uL cohesin at 220 s intervals; proteins in 50 mM HEPES pH 7.5, 0.5 mM CaCl2, 0.5 mM TCEP; single-site model
Conditions in all cases: both partners purified
[1] = molecular target: T1, RfDoc1a Q47A, thioredoxin A fusion (R. flavefaciens FD-1)
T1 construct: numbers count on: the recombinant construct of the crystal structure (RfDoc1a numbering of PDB 5M2O); mutant of m3 (pHTP2 derivative); see the note of m3 on limits and numbering; source: E. coli, purified (IMAC, His GraviTrap)

[2] = molecular target: T2, RfDoc1a, group 1a dockerin, thioredoxin A fusion, wild type (R. flavefaciens FD-1)
T2 construct: numbers count on: the recombinant construct of the crystal structure (RfDoc1a numbering, residues 23-96 seen in PDB 5M2O); also called Doc1aWT; source: E. coli, purified (IMAC, His GraviTrap)

[3] = molecular target: T3, RfDoc1a I39A, thioredoxin A fusion (R. flavefaciens FD-1)
T3 construct: numbers count on: the recombinant construct of the crystal structure (RfDoc1a numbering of PDB 5M2O); mutant of m3 (pHTP2 derivative); see the note of m3 on limits and numbering; source: E. coli, purified (IMAC, His GraviTrap)

[4] = molecular target: T4, RfDoc1a S40A, thioredoxin A fusion (R. flavefaciens FD-1)
T4 construct: numbers count on: the recombinant construct of the crystal structure (RfDoc1a numbering of PDB 5M2O); mutant of m3 (pHTP2 derivative); see the note of m3 on limits and numbering; source: E. coli, purified (IMAC, His GraviTrap)

[5] = molecular target: T5, RfDoc1a V43A, thioredoxin A fusion (R. flavefaciens FD-1)
T5 construct: numbers count on: the recombinant construct of the crystal structure (RfDoc1a numbering of PDB 5M2O); mutant of m3 (pHTP2 derivative); see the note of m3 on limits and numbering; source: E. coli, purified (IMAC, His GraviTrap)

[6] = molecular target: T6, RfDoc1b, group 1b dockerin, thioredoxin A fusion, wild type (R. flavefaciens FD-1)
T6 construct: group 1b dockerin (Doc1b), C-terminal component of protein WP_009982745, a family 9 glycoside hydrolase of R. flavefaciens FD-1, residues 783-862; numbers count on: the recombinant construct of the crystal structure (RfDoc1b numbering, residues 24-102 seen in PDB 5M2S); also called Doc1bWT; Doc1b WT; source: E. coli, purified (IMAC, His GraviTrap)

[7] = molecular target: T7, RfDoc1a L87A, thioredoxin A fusion (R. flavefaciens FD-1)
T7 construct: numbers count on: the recombinant construct of the crystal structure (RfDoc1a numbering of PDB 5M2O); mutant of m3 (pHTP2 derivative); see the note of m3 on limits and numbering; source: E. coli, purified (IMAC, His GraviTrap)

[8] = molecular target: T8, RfDoc1a K54A, thioredoxin A fusion (R. flavefaciens FD-1)
T8 construct: numbers count on: the recombinant construct of the crystal structure (RfDoc1a numbering of PDB 5M2O); mutant of m3 (pHTP2 derivative); see the note of m3 on limits and numbering; source: E. coli, purified (IMAC, His GraviTrap)

[9] = molecular target: T9, RfDoc1a V43A + Q47A, thioredoxin A fusion (R. flavefaciens FD-1)
T9 construct: numbers count on: the recombinant construct of the crystal structure (RfDoc1a numbering of PDB 5M2O); mutant of m3 (pHTP2 derivative); see the note of m3 on limits and numbering; source: E. coli, purified (IMAC, His GraviTrap)

[10] = molecular target: T10, RfDoc1a Q83A, thioredoxin A fusion (R. flavefaciens FD-1)
T10 construct: numbers count on: the recombinant construct of the crystal structure (RfDoc1a numbering of PDB 5M2O); mutant of m3 (pHTP2 derivative); see the note of m3 on limits and numbering; source: E. coli, purified (IMAC, His GraviTrap)

B1: RfCohScaB3, ScaB cohesin 3 with C-terminal hexa-histidine tag, wild type (domain or fragment)
chain: MPVANADVVFDFQNYTAKAGDEVTVDVLVDSKNKPISAMDVKFKVDSPLTIEEIDKESLAFNTTVMTNMAILGANFKSLDDKGEPLVPKDGAAVFTLYVNVPANTPDGTYYVGFNGKNEVHKSNDGSQFTVASKNGAITVGTPNEEG
[1]
  Ka: 1.71e+07 M⁻¹
  dH: -48.27 ± 0.12 kcal/mol
  stoichiometry N: 1
[2]
  Ka: 1.18e+08 M⁻¹
  dH: -50.68 ± 0.29 kcal/mol
  stoichiometry N: 1
[3]
  Ka: 3.86e+06 M⁻¹
  dH: -57.26 ± 0.12 kcal/mol
  stoichiometry N: 1
[4]
  Ka: 1.09e+08 M⁻¹
  dH: -46.6 ± 0.15 kcal/mol
  stoichiometry N: 1
[5]
  Ka: 1.91e+06 M⁻¹
  dH: -52.08 ± 0.14 kcal/mol
  stoichiometry N: 1
[6]
  Ka: 1.03e+07 M⁻¹
  dH: -64.94 ± 0.44 kcal/mol
  stoichiometry N: 1
[7]
  Ka: 2.81e+07 M⁻¹
  dH: -59.84 ± 0.19 kcal/mol
  stoichiometry N: 1
[8]
  Ka: 1.96e+07 M⁻¹
  dH: -59.73 ± 0.25 kcal/mol
  stoichiometry N: 1
[9]
  Ka: 436000 M⁻¹
  dH: -48.79 ± 0.39 kcal/mol
  stoichiometry N: 1
[10]
  Ka: 1.54e+08 M⁻¹
  dH: -39.5 ± 0.83 kcal/mol
  stoichiometry N: 1

— PMC5429695, “Assembly of Ruminococcus flavefaciens cellulosome revealed by structures of two cohesin-dockerin complexes” (Scientific Reports, 2017)
